Results reported in article PMC11672684 (Cell Reports, 2024).

Columns and labels:
H5 HA = H5 HA (Influenza A virus H5, assay strain not …, UniProt A5A5L7); assay: ELISA + BLI; details: both partners purified
H7 A/Anhui/1/2013 HA = H7 A/Anhui/1/2013 HA (Influenza A virus A/Anhui/1/2013 (H7N9), UniProt A0A024E3P0); assay: BLI; […], dissociation 5 min; 1% BSA in PBS; 30°C; […]; details: both partners purified

B1: 43_S0008 (antibody, V domains shown)
VH: QVQLVQSGAEVKKPGSSVKVSCKASGGTFRTFGISWVRQAPGQGLEWMGWIIPIIGTPNYAQKFQGRVIITADESSNTAYMELNSLKSEDTAVYYCAKEGRALLRYFDWLPLDAFDIWGQGTMVTVSS
VL: DIVLTQTPLSLPVSLGDQASISCRSSQSLVHSDGNTYLHWYLQKPGQSPKLLIYKVSNRFSGVPDRFSGSGSGTDFTLKISRVEAEDLGVYFCSQSTHVPPLTFGAGTKLELK
notes: also called mAb 43_S0008; IGHV1-69 + IGHD3-9 mAb 43_S0008; source: Expi293 cells, purified (protein A)
**Q.** Does B1 bind (H5 HA)?
**A.** binds

**Q.** Does B1 bind (H7 A/Anhui/1/2013 HA)?
**A.** binds
